Results from publication PMC8913699, “Overall structure of fully assembled cyanobacterial KaiABC circadian clock complex by an integrated experimental-computational approach” (Communications Biology, 2022).
One block for each binder: values may come before it.

B1: phosphorylation mimic KaiC (S431 substituted with aspartate) from Synechococcus sp. PCC 7942 (natural protein)
chain: MTSAEMTSPNNNSEHQAIAKMRTMIEGFDDISHGGLPIGRSTLVSGTSGTGKTLFSIQFLYNGIIEFDEPGVFVTFEETPQDIIKNARSFGWDLAKLVDEGKLFILDASPDPEGQEVVGGFDLSALIERINYAIQKYRARRVSIDSVTSVFQQYDASSVVRRELFRLVARLKQIGATTVMTTERIEEYGPIARYGVEEFVSDNVVILRNVLEGERRRRTLEILKLRGTSHMKGEYPFTITDHGINIFPLGAMRLTQRSSNVRVSSGVVRLDEMCGGGFFKDSIILATGATGTGKTLLVSRFVENACANKERAILFAYEESRAQLLRNAYSWGMDFEEMERQNLLKIVCAYPESAGLEDHLQIIKSEINDFKPARIAIDSLSALARGVSNNAFRQFVIGVTGYAKQEEITGLFTNTSDQFMGAHSITDSHIDTITDTIILLQYVEIRGEMSRAINVFKMRGSWHDKAIREFMISDKGPDIKDSFRNFERIISGSPTRITVDEKSELSRIVRGVQEKGPES
notes: KaiC, Synechococcus sp; PCC 7942, phosphorylation mimic with S431 replaced by aspartate; A 75%-deuterated form (dC) was used in the iCM-SANS sample; Buffer contained 1 mM ATP and 5 mM MgCl2; also called C6 (homohexamer); hC; source: E. coli, purified as a Strep-tagged recombinant protein
B2: KaiA from Synechococcus sp. PCC 7942 (natural protein)
chain: LSQIAICIWVESTAILQDCQRALSADRYQLQVCESGEMLLEYAQTHRDQIDCLILVAANPSFRAVVQQLCFEGVVVPAIVVGDRDSEDPDEPAKEQLYHSAELHLGIHQLEQLPYQVDAALAEFLRLAPVETMADHIMLMGANHDPELSSQQRDLAQRLQERLGYLGVYYKRDPDRFLRNLPAYESQKLHQAMQTSYREIVLSYFSPNSNLNQSIDNFVNMAFFADVPVTKVVEIHMELMDEFAKKLRVEGRSEDILLDYRLTLIDVIAHLCEMYRRSIPRET
notes: KaiA, Synechococcus sp; PCC 7942; Both N- and C-terminal domains were present in the sample, since the study locates the N-terminal domains, so it was probably whole KaiA; Hydrogenated in all samples; also called A2 (homodimer); hA (hydrogenated KaiA); source: E. coli, purified after cleavage of the his-tag

Assays:
[1] = biological target: the molecule itself; assay: AUC; sedimentation velocity, Rayleigh interference optics, 60,000 rpm, 30 °C; ternary KaiA-KaiB-KaiC mixture 1.0 mg/mL (KaiA added in excess to SEC-purified B6C6, final 24:12:6); hydrogenated proteins in H2O buffer: 20 mM Tris-HCl pH 8.0, 150 mM NaCl, 5 mM MgCl2, 0.5 mM EDTA, 1 mM DTT, 1 mM ATP
[2] = biological target: the molecule itself; assay: AUC-SAXS; KaiA alone, 1.0 mg/mL, 25 °C; SV-AUC at 60,000 rpm with laboratory SAXS (NANOPIX); experimental profile compared with the crystal dimer and with simulated dimers
[3] = biological target: T1, B6C6 complex (KaiB-KaiC complex formed beforehand and isolated by SEC) (Synechococcus sp. PCC 7942, UniProt Q79PF5 1-102; Q79PF4 1-519, S431 substituted with an aspartate residue); assay: AUC; sedimentation velocity, Rayleigh interference optics, 60,000 rpm, 30 °C; ternary KaiA-KaiB-KaiC mixture 1.0 mg/mL (KaiA added in excess to SEC-purified B6C6, final 24:12:6); hydrogenated proteins in H2O buffer: 20 mM Tris-HCl pH 8.0, 150 mM NaCl, 5 mM MgCl2, 0.5 mM EDTA, 1 mM DTT, 1 mM ATP; settings: both partners purified
T1 construct: KaiB, Synechococcus sp; PCC 7942, as m2; KaiC, Synechococcus sp; PCC 7942, phosphorylation mimic with S431 replaced by aspartate, as m3; Oversaturating KaiA was added to this purified complex; the final molar ratio [KaiA]:[KaiB]:[KaiC] was 24:12:6; In the iCM-SANS sample both chains were 75%-deuterated; also called BC complex; B6C6 subcomplex; source: E. coli proteins, purified; KaiB and KaiC …
T1 sequence 1: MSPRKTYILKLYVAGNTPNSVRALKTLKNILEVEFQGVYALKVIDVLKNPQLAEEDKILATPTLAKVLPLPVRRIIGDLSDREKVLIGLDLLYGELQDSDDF
T1 sequence 2: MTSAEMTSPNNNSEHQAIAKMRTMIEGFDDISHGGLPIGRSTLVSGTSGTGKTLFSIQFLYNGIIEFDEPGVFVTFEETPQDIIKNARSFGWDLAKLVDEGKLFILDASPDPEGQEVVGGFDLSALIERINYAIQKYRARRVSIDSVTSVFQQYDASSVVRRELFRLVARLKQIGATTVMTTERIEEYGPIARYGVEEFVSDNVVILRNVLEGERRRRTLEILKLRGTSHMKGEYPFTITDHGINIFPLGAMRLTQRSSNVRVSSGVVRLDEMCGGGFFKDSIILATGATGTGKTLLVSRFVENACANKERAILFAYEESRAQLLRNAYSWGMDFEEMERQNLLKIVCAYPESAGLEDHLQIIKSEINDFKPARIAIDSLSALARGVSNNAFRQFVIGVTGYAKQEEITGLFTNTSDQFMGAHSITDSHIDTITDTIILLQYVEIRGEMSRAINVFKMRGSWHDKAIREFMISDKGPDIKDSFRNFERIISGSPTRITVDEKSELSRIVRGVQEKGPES

[4] = biological target: B1; assay: SEC; KaiB and KaiC mixed 9:6 in 20 mM Tris-HCl pH 8.0, 150 mM NaCl, 5 mM MgCl2, 0.5 mM EDTA, 1 mM DTT, 1 mM ATP at 10 °C; complex isolated with SEC; settings: both partners purified
[5] = biological target: B2; assay: AUC; sedimentation velocity, Rayleigh interference optics, 60,000 rpm, 30 °C; ternary KaiA-KaiB-KaiC mixture 1.0 mg/mL (KaiA added in excess to SEC-purified B6C6, final 24:12:6); hydrogenated proteins in H2O buffer: 20 mM Tris-HCl pH 8.0, 150 mM NaCl, 5 mM MgCl2, 0.5 mM EDTA, 1 mM DTT, 1 mM ATP; settings: both partners purified

Binder: B1
- stoichiometry N [1]: 6

Binder: B2
- stoichiometry N [2]: 2
- stoichiometry N [3]: 12 KaiA protomers per B6C6 complex

- binding result [4]: binds
- binding result [5]: binds
B3: KaiB from Synechococcus sp. PCC 7942 (natural protein, UniProt Q79PF5 1-102, looked up)
chain: MSPRKTYILKLYVAGNTPNSVRALKTLKNILEVEFQGVYALKVIDVLKNPQLAEEDKILATPTLAKVLPLPVRRIIGDLSDREKVLIGLDLLYGELQDSDDF
notes: KaiB, Synechococcus sp; PCC 7942; A 75%-deuterated form (dB) was used in the iCM-SANS sample; also called B4 (homotetramer); hB; source: E. coli, purified after cleavage of the GST-tag
